To fix the notation:
B1: LINE1-full (parent)
chain: UACGUAGGUGGUUUUCCCCUGAUAGUGCUAAGGGGGCCUGGAAGUUUGGACUGGGCAGAGCUCAACACAGCGUGGCAAAGUGGCUGUGGCUAGACUGCCUCUCUGGAUUCCUCGUCACUCAGCAGGGCAUCUCUGAGAGAAAUGCC

Variants of B1 are the subject of the data set. Nature of the data set: self-cleavage, relative activity (ratio to wild type); higher = more cleavage; in vitro, sequencing; the parent is a self-cleaving ribozyme.
As for U26G U143A, the self-cleavage is 0.68.
Under G27A A121G stands 1.46.
For the variant U26C G144A, the self-cleavage turned out to be 1.02.
Under C28U C63A stands 0.02; under G27U U52C, 0.36; under U26G U39A, 1.12.
Next, U26G U39C: 1; U26C U52A: 1.53.
Take U26C U46A: the self-cleavage stood at 0.
Next, C28A A57G: 1.53; C28A A42G: 0.82; G27U G82A: 1.51.
Regarding U26C U132A, the self-cleavage turned out to be 1.73.
On to G27C A67C, for which the self-cleavage worked out at 0.1.
U26C G88A: the self-cleavage came out at 0.05.
Under C28A U81C stands 0.89; under G27A U91C, 0.35; under C28U A136G, 0.
Under U26C G70A stands 0.14; under U26C U96C, 0.29; under C28A A129G, 1.5.
Under U29A A50U stands 0.89; under U29A A50G, 0.51.
With C28U A142G, the self-cleavage came out at 0.79.
Next, U26G U62A: 0.03.
Next, U26G U62C: 0.19; C28U U115G: 1.3; U26C G122U: 1.05.
Next, G27A U96C: 0.1; C28U U52C: 1.58; C28A G32A: 0.7.
In the case of U26G U130C, the self-cleavage came to 0.86.
Consider U26G G139A, for which the self-cleavage was 1.47.
Regarding C28U U47G, the self-cleavage was determined as 0.7.
Next, G27A G53U: 1.14.
Next, G27A G53A: 0.94; C28G U115C: 0.75; U26C U73G: 0.97.
Next, C28A A64G: 0.28.
G27A G34A: the self-cleavage came out at 0.64.
Under U26C G125U stands 0.92; under U26C G125A, 1.61; under G27U C61U, 0.06.
Next, U26C G97A: 0.07; C28U A59G: 0.09.
Under C28A A124G stands 0.56; under C28A, 1.07.
For the variant C28U, the self-cleavage is 1.08.
As for C28G, the self-cleavage amounted to 0.98.
Next, U26C C146U: 1.68.
Next, U26G A107G: 0; U26C G86A: 0.05.
For U26G A77G, the self-cleavage was determined as 2.53.
Next, U29A A30G: 0.86.
Next, U26C U134A: 1.32; U26C U45C: 1.07; U26C U45A: 0.99.
Under U26C U47C stands 1.88.
Turning to U26C G114A, the self-cleavage came to 1.22.
Under U26G G122A stands 1.81; under G27C U100C, 1.13; under U26C U100C, 1.29.
Next, G27A U81C: 0.8; C28U A94G: 0.3; U26C U130A: 1.35.
Under U26C U130C stands 1.7; under C28A U39A, 1.54; under C28U C123U, 1.03.
With U26C U115C, the self-cleavage was 1.84.
For the variant U26C U115A, the self-cleavage is 1.33.
Under G27U U47C stands 0.88; under G27U U73C, 1.51; under C28U A92U, 0.43.
Under C28U G54A stands 0.65.
G27A U29C: the self-cleavage was found to be 0.79.
On to U26C U112A, for which the self-cleavage turned out to be 1.63.
Under U26G G105A stands 1.06.
Next, C28A A141G: 0.61; U26C U39G: 0.65.
Under U26C U39A stands 1.9; under U26C U62C, 0.1; under C28U A141G, 1.53.
Turning to C28A U108C, the self-cleavage is 1.82.
Next, U29A A57G: 1.01.
Next, U26G A141G: 0.97.
As for C28U A78G, the self-cleavage came out at 1.
Under U26C G139A stands 1.34; under G27C G54U, 0.17.
For the variant G27A A42G, the self-cleavage stood at 0.99.
Under C28U A117G stands 1.58.
Next, U26C G74U: 1.42.
Under U26C G74A stands 1.17; under U26C U108G, 2.12; under U26C U108C, 1.76.
As for U26C U108A, the self-cleavage stood at 1.5.
For the variant U26G A57G, the self-cleavage was 0.82.
Next, U26C G72U: 1.02.
Next, U26C G72A: 0.93.
Under C28U A77G stands 1.38; under C28U A77C, 1.07.
For the variant U26C G44A, the self-cleavage was 1.17.
Under U26C U119A stands 1.25.
Under U26G U81C stands 0.58.
Under U26G A31U stands 1.16.
Turning to G27U U132A, the self-cleavage was found to be 1.23.
Take C28A G36A: the self-cleavage was 1.9.
Take U26C G60A: the self-cleavage was 0.12.
Under U29A A43G stands 1.77; under C28U A138U, 0.9.
For G27C U112C, the self-cleavage was found to be 1.53.
Next, U26C G33A: 0.7.
Next, U26C G33U: 1.01; C28G U100A: 0.81; U26G A50G: 0.56.
As for G27A A138C, the self-cleavage came out at 1.18.
Under G27A A140G stands 1.38.
Next, G27C U52A: 0.91; C28U U46C: 1.21.
Next, C28A U85C: 0.17.
C28G A77G: the self-cleavage amounted to 0.89.
Regarding C28A A67G, the self-cleavage is 0.55.
Under U26C G32A stands 1.03.
Turning to U26C G32C, the self-cleavage stood at 0.94.
Under U26C U29C stands 1.15; under U26G U73C, 0.96; under U26G U73A, 1.61.
Under U26G A78G stands 1.31; under U26C U87C, 0.26.
Under C28U C38U stands 1.06; under C28G A65U, 0.
For the variant C28U A50G, the self-cleavage came to 1.09.
Under C28U U81C stands 1.39; under C28U U81A, 1.44; under G27U G41U, 1.26.
Regarding G27A A57U, the self-cleavage came out at 0.04.
Next, G27A A79G: 1.07; G27A A79U: 1.36; G27A A30U: 1.58.
Under C28A A77U stands 1.42.
Under U26G A121C stands 1.31; under C28U A107G, 0.88; under U26G U108A, 1.03.
For the variant U26G U108C, the self-cleavage was 1.41.
Under U26C G35U stands 1.56; under U26C G35C, 2.65.
Next, C28A U96C: 0.17.
Next, C28G C128U: 1.8.
As for U26C U81A, the self-cleavage was determined as 1.68.
U26C U81C: the self-cleavage was determined as 1.93.
Under U26G A69G stands 0.17.
Under U26C G105U stands 1.57.
Under G27A A94U stands 0.18.
As for G27A A94G, the self-cleavage was found to be 0.23.
Under C28G U39C stands 0.82; under C28U C101U, 1.06.
Under C28A A92G stands 0.12; under G27A A78G, 0.74.
Next, U26G A59G: 0.41; G27A U102A: 1.12; C28G C98A: 0.12.
Take G27A U115C: the self-cleavage worked out at 1.54.
In the case of U29A A42G, the self-cleavage was found to be 1.65.
Next, C28A U47C: 0.63.
Next, G27A G36C: 1.24; U26C U102C: 1.22.
Under U26C U102A stands 1.31; under G27A U62C, 0.08.
